Experimental data: US12624096B2, “Anti-tau antibodies and methods of use thereof” (GTInvent Limited, priority 2020, dated 2026)

B1: CA4: anti-tau clone, SEQ ID NO: 368 (protein)
chain: QVQLQESGPSLVKPSQTLSLTCTVSGFSLTSYSVYWVRQAPGQALEWISIMYASGRVDYNPALKSRLSITRDTSKSQFSLSLSSVTTEDTAVYYCTRGIENWGPGLLVTVSSEGKSSGASGESKVDDDIQVTQSPSSLSASLTERVSITCRTSQSVNNYLSWYQQKPGQAPKLLIYYATRLYTDVPSRFSGSGSGTDYTLTITSLEADDTATYYCLQYDSTPLAFGGGTNVEIK
modifications: CA4 amino acid sequence
B2: CA9: anti-tau clone, SEQ ID NO: 371 (protein)
scFv: QVQLQESGPSLVKPSQTLSLTCTVSGFSLTSNSVGWVRQAPGKAPEWVAGIDTDGEEGYNPALNSRLSITRDTSKSQVSLSLSSVTSEDTAVYYCGRSYRSDGLAYGYVQAIDYWGPGLLVTVSSEGKSSGASGESKVDDQAVLTQPASVSGSLGQRVSITCSGSFIGISSVGWFQQLPGSGLRTIIVASDGRPSGVPDRFSMSKSGNTATLTISSLQAEDEADYFCGSSDRTQYTGVFGSGTRLTVLG
modifications: CA9 amino acid sequence
B3: CA12: anti-tau clone, SEQ ID NO: 372 (protein)
scFv: QVQLQGSGPSLVKPSQTLSLTCTVSGFSFDSYYVGWVRQAPGKALEWLGNIYSTGRAFYNPALKSRLSITRDTSKSQVSLSVSSVTIEDTALYYCVRGSYYHGGGNGMVDFFDYWSPGLLVTVSSEGKSSGASGESKVDDQVVRTQPSSVSGSLGQRVSITCSGSSSNVGYGNYVGWFQQVPGSAPKLLIYAATSRASGVPDRFSGSRSGNTATLTIDSLQAEDEADYYCSSYQRGNTGVFGSGTRLTVLG
modifications: CA12 amino acid sequence
B4: S1E12: anti-tau clone, SEQ ID NO: 218 (protein)
scFv: QVQLQESGPSLVKPSQTLSLTCTVSGFSLGSNSVGWVRQAPGKAPEWVAGIDTDGEEGYNPALNSRLSITRDTSKSQVSLSLSSVTSEDTAVYYCGRSYRADGLAYGYVQAIDYWGPGLLVTVSSEGKSSGASGESKVDDRVVRTQPSSVSGSLGQRVSITCSGSFIGISSVGWFQQLPGSGLRTIIVASDGRPSGVPDRFSMSKSGNTATLTISSLQAEDEADYFCGSSDRTQYTGVFGSGTRLTVLG
modifications: S1E12 amino acid sequence
B5: CA9 scAb (protein)
scFv: QVQLQESGPSLVKPSQTLSLTCTVSGFSLTSNSVGWVRQAPGKAPEWVAGIDTDGEEGYNPALNSRLSITRDTSKSQVSLSLSSVTSEDTAVYYCGRSYRSDGLAYGYVQAIDYWGPGLLVTVSSEGKSSGASGESKVDDQAVLTQPASVSGSLGQRVSITCSGSFIGISSVGWFQQLPGSGLRTIIVASDGRPSGVPDRFSMSKSGNTATLTISSLQAEDEADYFCGSSDRTQYTGVFGSGTRLTVLG
modifications: left off: small tags and cut ends
B6: CA12 scAb (protein)
scFv: QVQLQGSGPSLVKPSQTLSLTCTVSGFSFDSYYVGWVRQAPGKALEWLGNIYSTGRAFYNPALKSRLSITRDTSKSQVSLSVSSVTIEDTALYYCVRGSYYHGGGNGMVDFFDYWSPGLLVTVSSEGKSSGASGESKVDDQVVRTQPSSVSGSLGQRVSITCSGSSSNVGYGNYVGWFQQVPGSAPKLLIYAATSRASGVPDRFSGSRSGNTATLTIDSLQAEDEADYYCSSYQRGNTGVFGSGTRLTVLG
modifications: left off: small tags and cut ends

What was measured:
[1] = biological target: htau40 (Homo sapiens, UniProt P10636); assay: Biacore X100 SPR of anti-tau mAbs on immobilised htau40; assay type: binding; conditions: mAb, Table 27, immobilised hT40
htau40, sequence (P10636 1-441 isoform P10636-8): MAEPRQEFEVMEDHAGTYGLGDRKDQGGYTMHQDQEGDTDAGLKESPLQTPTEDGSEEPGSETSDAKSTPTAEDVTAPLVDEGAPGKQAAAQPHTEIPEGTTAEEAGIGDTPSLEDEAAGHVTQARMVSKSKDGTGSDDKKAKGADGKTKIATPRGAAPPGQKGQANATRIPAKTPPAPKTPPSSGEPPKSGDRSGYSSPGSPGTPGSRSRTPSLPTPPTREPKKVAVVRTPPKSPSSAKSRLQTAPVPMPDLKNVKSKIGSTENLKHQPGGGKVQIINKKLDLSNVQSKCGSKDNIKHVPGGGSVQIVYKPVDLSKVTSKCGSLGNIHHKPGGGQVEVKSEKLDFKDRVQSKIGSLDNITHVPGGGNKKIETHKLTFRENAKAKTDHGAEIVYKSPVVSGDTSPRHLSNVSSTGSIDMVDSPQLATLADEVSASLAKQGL
Description: For anti-tau mAb SPR measurements, htau40 was conjugated to the surface of a CM5 sensor chip using amine coupling as explained previously. Briefly, 2 μg/mL htau40 in 10 mM Sodium acetate buffer (pH 4.0) was passed over the activated chip surface (EDC/NHS) in flow cell 2 for a period for 45 s followed by blocking with 1 M ethanolamine-HCl PH 8.5. Flow cell 1 was set up as reference control and blocked simultaneously. Final immobilisation level of htau40 (Rmax) was approximately 250 RU. Following a minimum of three start-up cycles, increasing concentrations (0.78 nM-25 nM) of the mAb in HBS-EP+ buffer was added at a rate of 30 μL/min to the chip. The mAb was added for a 120 s association period and 600 s dissociation period followed by a regeneration cycle of 30 s injection of glycine buffer pH 1.5 in between each cycle. Binding responses were analysed in Biacore X100 evaluation software and data fitted to a 1:1 binding model to obtain kinetic and affinity characterisation.
For anti-tau mAb SPR measurements (Biacore X100™) and epitope mapping, the same methodologies described above (see Example 16) were followed. Kinetic rates and equilibrium binding constants of additional anti-tau mAbs and the regions recognised on hT40 are given in the Table 25 below

[2] = biological target: hT40 (Homo sapiens, UniProt P10636); assay: Biacore X100 SPR, scAb captured via anti-HuCk, hT40 as analyte; assay type: binding; conditions: scAb, Table 23, T441 (hT40)
hT40, sequence (P10636 1-441 isoform P10636-8): as above
Description: Surface plasmon resonance (SPR) is widely regarded as the gold standard for real time measurement of protein-protein interactions such as antibody binding. All SPR experiments were carried out using a Biacore X100 machine and HBS EP+ running buffer (GE Healthcare). A ‘capture’ method was followed for affinity measurements, where an anti-human constant kappa chain (HuCk) antibody was conjugated to the surface of a CM5 sensor chip using an amine coupling kit and scAb molecules were immobilised via their HuCk domain. Amine coupling is a very common approach for immobilising the ligand to the chip surface. […] The capture antibody was diluted 1/100 in 10 mM Sodium acetate buffer pH 5.0 and passed over the activated chip surface for a period of at least 420 s. Final ligand immobilisation levels over 12,000 RU were deemed to be satisfactory.
(§1) Following immobilisation, the level of each scAb to be captured was identified using the standard SPR equation with a theoretical RMax of 100 RU. Analyte MW refers to the molecular weight of hT40 or dGA/dGAE molecules, while ligand MW refers to the molecular weight of the scAbs tested. RL is the desired capture level and S refers to the stoichiometric ratio:
The scAb to be tested was added only to flow cell 2 so that flow cell 1 could act as a control to subtract any interaction with the analyte and the chip surface. Both single and multi-cycle runs were utilised using wizards developed in the Biacore X100 control software which are both accepted methods of kinetic analysis (Karlsson, R., et al. Analyzing a kinetic titration series using affinity biosensors (2006) Analytical Biochemistry 349:136-47). The multi-cycle protocol was as follows-Three start-up cycles composed of an initial capture, to the desired level, of the scAb to be tested was performed followed by a 30 s injection of glycine buffer pH 2.0 after each cycle to regenerate the chip surface. […] Following three start-up cycles increasing concentrations (0.15625 nM-100 nM) of the target to be tested were added to the chip surface after the desired scAb capture. The target was added for a 120 s association period and 420 s dissociation period followed by another regeneration, 30 s injection of glycine buffer pH 2.0 in between each cycle.
(§2) The single cycle kinetics protocol was similar and utilised the same level of scAb capture. Three start-up cycles were used followed by 5 increasing concentrations of the analyte (6.25 nM-100 nM) for an association period of 120 s followed by a dissociation period of 420 s for each concentration. In single cycle kinetics the regeneration step was performed only after the final analyte concentration was added. Binding responses were analysed in Biacore X100 evaluation software and data fitted to a 1:1 binding model to obtain kinetic and affinity characterisation.

[3] = system: alanine substituted 13mer tau peptides; assay: Alanine scanning mutagenesis (ASM) peptide ELISA; assay type: binding, human; conditions: numbering according to SEQ ID NO: 1; description text 'may be'
Description: To further elucidate epitopes of the scAb panel, and identify the critical amino acids needed for binding, alanine scanning mutagenesis of the parent 13 aa peptides for scAbs CE2, S1D12, CA4 and S1G2 was performed. […] Briefly, 5 μg/ml streptavidin (Thermo Fisher) was adsorbed to Nunc 96-well MaxiSorp plates and following incubation at 37° C., for 1 h, the plates were washed as normal and blocked with 2% MPBS. N-terminally biotinylated peptides (Prolmmune Ltd) were added to the plates and incubated for 1 h at 37° C. Subsequently, test scAbs at starting concentrations of 100-500 nM was added and double diluted across the plate for each peptide and incubated for 1 h at 37° C. Rest of the ELISA was conducted as described above and the plates were read at absorbance 450 nm. Immunoreactivity of the scAb of interest was quantified as the % of scAb was bound for each peptide at a chosen concentration (FIG. 15-20).

[4] = biological target: dGA (Homo sapiens, UniProt P10636); assay: Biacore X100 SPR, scAb captured via anti-HuCk, dGA as analyte; assay type: binding; conditions: dissociation rate
dGA, sequence (P10636 614-707): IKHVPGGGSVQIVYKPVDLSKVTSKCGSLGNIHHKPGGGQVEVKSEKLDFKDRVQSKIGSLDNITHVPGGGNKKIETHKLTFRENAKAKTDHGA
Description: Surface plasmon resonance (SPR) is widely regarded as the gold standard for real time measurement of protein-protein interactions such as antibody binding. All SPR experiments were carried out using a Biacore X100 machine and HBS EP+ running buffer (GE Healthcare). A ‘capture’ method was followed for affinity measurements, where an anti-human constant kappa chain (HuCk) antibody was conjugated to the surface of a CM5 sensor chip using an amine coupling kit and scAb molecules were immobilised via their HuCk domain. Amine coupling is a very common approach for immobilising the ligand to the chip surface. The chip surface has a dextran matrix derivatised with carboxyl groups, which after activation with N-hydroxysuccinimide (NHS) and 1-ethyl-3-(3-dimethylaminopropyl) carbodiimide (EDC), form reactive succinimide esters which allows the covalent capturing of the ligand via any available primary amine groups (e.g. Lysine) on the ligand (in this case anti-HuCk antibody). The capture antibody was diluted 1/100 in 10 mM Sodium acetate buffer pH 5.0 and passed over the activated chip surface for a period of at least 420 s. Final ligand immobilisation levels over 12,000 RU were deemed to be satisfactory.
as §1
The scAb to be tested was added only to flow cell 2 so that flow cell 1 could act as a control to subtract any interaction with the analyte and the chip surface. Both single and multi-cycle runs were utilised using wizards developed in the Biacore X100 control software which are both accepted methods of kinetic analysis (Karlsson, R., et al. Analyzing a kinetic titration series using affinity biosensors (2006) Analytical Biochemistry 349:136-47). The multi-cycle protocol was as follows-Three start-up cycles composed of an initial capture, to the desired level, of the scAb to be tested was performed followed by a 30 s injection of glycine buffer pH 2.0 after each cycle to regenerate the chip surface. The regeneration step removed any captured scAb whilst leaving the capture antibody intact and able to repeat the capture for the next cycle. Following three start-up cycles increasing concentrations (0.15625 nM-100 nM) of the target to be tested were added to the chip surface after the desired scAb capture. The target was added for a 120 s association period and 420 s dissociation period followed by another regeneration, 30 s injection of glycine buffer pH 2.0 in between each cycle.
as §2

[5] = biological target: dGAE aggregates (Homo sapiens, UniProt P10636); assay: Sandwich ELISA on SDS/Triton X-100 treated dGAE aggregates; assay type: binding
dGAE aggregates, sequence (P10636 614-708): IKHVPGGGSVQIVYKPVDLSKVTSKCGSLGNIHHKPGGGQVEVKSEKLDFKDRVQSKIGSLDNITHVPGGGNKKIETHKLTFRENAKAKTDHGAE
Description: For aggregation, 1000 μL 100 μM dGAE+10 μL 10 mM DTT was added to a ‘LoBind’ microfuge tubes and agitated at 700 RPM/37° C., for 24 hours. Resulting sample centrifuged at 17,000×g/4° C., for 60 min and supernatant discarded to remove left over monomer. Pellet resuspended in half the original volume for future experiments and hereafter referred to as ‘aggregates’. 1 μl of aggregates was added to 1 ml of PBS and SDS was added to a final concentration of 1% (w/v). This was left to incubate on lab bench for 1 h with gentle agitation every 15 minutes. In order to neutralise the SDS effect on ELISA, Triton X-100 added to a final concentration of 3% (v/v) and mixed gently by pipetting to prevent any bubble formation. […] Similarly aggregates treated with only SDS or Triton X-100, untreated aggregates, dGAE monomers treated with only SDS or SDS+Titon X-100 were also added to designated wells as controls. All samples were then double diluted across the plate in final volumes of 100 μl. The final column was left with no protein to act as a blank. This was allowed to stand at room temperature for 1 hour followed by the addition of detection scAb-S1G2 at 10 μg/ml. Anti-HuCk HRP labelled secondary antibody was added as described previously and ELISA data generated was represented using the graph below. In addition, limits of detection (LoD) of various core binding antibody pairing for SDS Triton X-100 treated dGAE aggregates were calculated using the above describe ELISA method and substituting capture mAbs and detection scAbs as shown in Table 30.

[6] = S1D12 mAb capture, +SDS Triton dGAE agg.
[7] = direct immobilisation of dGAE aggregates, +SDS Triton

Row | Molecule | ka [2] [M⁻¹ s⁻¹] | kd [2] [s⁻¹] | Critical residues of the epitope [3] | LoD [5, 6] [ng/mL] | LoD [5, 7] [ng/mL] | also measured
1 | B1 | 458100 | 0.001654 | 358 (D), 360 (I), 361 (T), 362 (H) and/or 364 (P) | – | – | ka [1]: 1.02e+06 M⁻¹ s⁻¹; kd [1]: 0.001276 s⁻¹
2 | B2 | – | – | 370 (K), and/or 374 (H) | – | – | –
3 | B3 | – | – | 370 (K), and/or 374 (H) | – | – | –
4 | B4 | 385000 | 0.000319 | – | – | – | Kd [4]: 0.001627 s⁻¹
5 | B5 | – | – | – | 4 | 40 | –
6 | B6 | – | – | – | 2 | 16 | –
